Measured values taken from US20250264433A1 (STATE OF ISRAEL MINISTRY OF AGRICULTURE AND RURAL …, published 2025).

Target: Native EspB of wild-type EPEC O127:H6 strain E2348/69
Sequence (Q05129 whole entry): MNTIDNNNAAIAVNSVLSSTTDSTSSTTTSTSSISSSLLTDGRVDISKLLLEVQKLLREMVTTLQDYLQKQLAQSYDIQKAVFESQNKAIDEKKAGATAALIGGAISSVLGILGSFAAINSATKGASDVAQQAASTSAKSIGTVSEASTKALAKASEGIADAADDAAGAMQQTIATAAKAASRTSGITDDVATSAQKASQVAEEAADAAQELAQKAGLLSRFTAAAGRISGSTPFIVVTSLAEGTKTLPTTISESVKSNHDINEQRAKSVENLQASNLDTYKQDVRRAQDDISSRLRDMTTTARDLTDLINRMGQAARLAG

B1: mAb-EspB-B7 (antibody, V domains shown)
VH: EVQLLESGGGLVQPGGSLRLSCAASGFTFSHYAMNWVRQAPGKGLEWVSAINSNGDSTYYPDTVKDRFTISRDNSKNTLYLQMNSLRAEDTAVYYCARDRRAGYFDYWGQGTLVTVSS
VL: DIVLTQPPSASGTPGQRVTISCSGSRDNIGKNYVSWYQQLPGTAPKLLIYRNNQRPSGVPDRFSGSKSGTSASLAISGLRSEDEADYYCSAWDTSLNAYVFGPGTQLTVL
notes: also called mAb-B7; anti-EspB antibody
- signal for EPEC WT relative to the ΔespB strain: 36%
